Measurements taken from paper doi:10.1101/2024.10.04.616715 (bioRxiv, 2024).

Target: the molecule itself
Experiment: cryo-EM structure

B1: human XPR1 (Xenotropic and Polytropic Retrovirus Receptor 1) (natural protein, UniProt Q9UBH6 1-696, looked up)
chain: MKFAEHLSAHITPEWRKQYIQYEAFKDMLYSAQDQAPSVEVTDEDTVKRYFAKFEEKFFQTCEKELAKINTFYSEKLAEAQRRFATLQNELQSSLDAQKESTGVTTLRQRRKPVFHLSHEERVQHRNIKDLKLAFSEFYLSLILLQNYQNLNFTGFRKILKKHDKILETSRGADWRVAHVEVAPFYTCKKINQLISETEAVVTNELEDGDRQKAMKRLRVPPLGAAQPAPAWTTFRVGLFCGIFIVLNITLVLAAVFKLETDRSIWPLIRIYRGGFLLIEFLFLLGINTYGWRQAGVNHVLIFELNPRSNLSHQHLFEIAGFLGILWCLSLLACFFAPISVIPTYVYPLALYGFMVFFLINPTKTFYYKSRFWLLKLLFRVFTAPFHKVGFADFWLADQLNSLSVILMDLEYMICFYSLELKWDESKGLLPNNSEESGICHKYTYGVRAIVQCIPAWLRFIQCLRRYRDTKRAFPHLVNAGKYSTTFFMVTFAALYSTHKERGHSDTMVFFYLWIVFYIISSCYTLIWDLKMDWGLFDKNAGENTFLREEIVYPQKAYYYCAIIEDVILRFAWTIQISITSTTLLPHSGDIIATVFAPLEVFRRFVWNFFRLENEHLNNCGEFRAVRDISVAPLNADDQTLLEQMMDQDDGVRNRQKNRSWKYNQSISLRRPRLASQSKARDTKVLIEDTDDEANT
  stoichiometry N: 2
